pKd: −log10 of the molar value.
Target: T1, EpCAM (endogenous on HuCCT1 cells) (UniProt P16422)
T1 sequence: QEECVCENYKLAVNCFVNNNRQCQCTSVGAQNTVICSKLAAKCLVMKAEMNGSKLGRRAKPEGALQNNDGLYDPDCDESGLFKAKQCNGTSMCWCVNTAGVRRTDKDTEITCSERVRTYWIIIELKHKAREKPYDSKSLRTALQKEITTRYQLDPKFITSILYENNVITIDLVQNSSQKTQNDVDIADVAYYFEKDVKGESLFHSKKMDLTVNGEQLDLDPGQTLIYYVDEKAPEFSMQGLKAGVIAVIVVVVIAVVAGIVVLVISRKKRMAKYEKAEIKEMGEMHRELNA
Assay: flow cytometry on HuCCT1 cells
Conditions: Whole cells, 30 min on ice, HuCCT1 biotin block in PBS + 0.2% NaN3, 2.5 mM MgCl2, 0.1 mg/mL yeast total RNA (aptamer binding buffer not separately stated) …

## CACACTTCTAAGAGGGAACAGACGTCGATCTTTGCGGAACTCCTGCG [PLD01 (B-aptamer)]
Phosphorothioate (marked * in Table 2): C*A*C*ACTTCTAAGAGGG*AACAGACGTCGATCTTTGCGGAACT*CCTG*C*G
  pKd: 6.75

## GACCCACGGAGGTTGCGTCCGTGGGGGAC [PLD02 (B-aptamer)]
Phosphorothioate (marked * in Table 2): G*A*C*CCACGGAGGTTG*CGTCCGTG*GGGG*A*C
  pKd: 6.63

— publication PMC11548041
